The source of these data is paper PMC7070046, “Sjögren syndrome/scleroderma autoantigen 1 is a direct Tankyrase binding partner in cancer cells” (Communications Biology, 2020).

Where no end group is shown, it is not given here.

Data set [1] has as its target T1, TNKS1 ARC subdomains 1–3 (ARC1–3, residues 178–645) (human, UniProt O95271 178-645).
T1 chain: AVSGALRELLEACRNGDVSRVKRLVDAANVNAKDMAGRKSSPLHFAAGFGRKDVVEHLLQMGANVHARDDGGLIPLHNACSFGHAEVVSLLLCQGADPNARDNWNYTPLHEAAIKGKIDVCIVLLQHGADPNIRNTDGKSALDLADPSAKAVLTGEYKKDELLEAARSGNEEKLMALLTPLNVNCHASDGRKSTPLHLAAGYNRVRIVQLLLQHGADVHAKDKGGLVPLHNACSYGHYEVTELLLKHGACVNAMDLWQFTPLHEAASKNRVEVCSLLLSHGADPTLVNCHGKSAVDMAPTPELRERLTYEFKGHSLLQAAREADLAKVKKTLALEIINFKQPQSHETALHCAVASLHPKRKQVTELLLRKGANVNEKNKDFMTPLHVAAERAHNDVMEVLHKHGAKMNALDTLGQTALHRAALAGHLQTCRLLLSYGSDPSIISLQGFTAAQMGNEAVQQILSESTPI
The experiment in a line: FP.

Data set [2] addresses T2, TNKS1 ARC subdomains 1–3 (ARC1–3, residues 178–645) (human, UniProt O95271 178-645).
T2 construct: human Tankyrase 1, ankyrin repeat clusters 1-3, residues 178-645; Cloned into pETM11 with NcoI and XhoI; also called TNKS1 ARC1–3
T2 sequence (looked up): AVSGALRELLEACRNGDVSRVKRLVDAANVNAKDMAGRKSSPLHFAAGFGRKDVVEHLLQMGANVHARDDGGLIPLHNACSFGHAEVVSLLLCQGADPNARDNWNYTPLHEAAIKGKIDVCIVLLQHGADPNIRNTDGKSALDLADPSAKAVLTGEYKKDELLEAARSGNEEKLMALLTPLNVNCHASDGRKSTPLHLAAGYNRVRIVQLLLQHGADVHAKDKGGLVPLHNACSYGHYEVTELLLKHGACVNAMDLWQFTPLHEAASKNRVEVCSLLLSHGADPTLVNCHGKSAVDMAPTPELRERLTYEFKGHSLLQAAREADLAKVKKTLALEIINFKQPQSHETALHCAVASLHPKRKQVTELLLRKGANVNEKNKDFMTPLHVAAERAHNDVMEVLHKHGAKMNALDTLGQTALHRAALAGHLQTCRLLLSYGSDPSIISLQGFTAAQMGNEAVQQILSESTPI
The experiment in a line: fluorescence polarisation; 50 nM 5-FAM-Ahx peptide with varied ARC1–3 protein; 25 mM HEPES pH 8, 150 mM NaCl, 1 mM TCEP, 5% glycerol, 0.05% CHAPS; room temperature, 60 min; one-site total binding model. The note with it: both partners purified. For orientation: Fluorescence polarisation rises when a labelled molecule tumbles more slowly, as on binding a larger partner.

Data set [3] deals with the molecule itself. The experiment in a line: SEC; HiLoad Superdex S75 16/600; 20 mM HEPES pH 7.4, 200 mM NaCl, 5% glycerol, 0.1 mM TCEP; elution compared with standard proteins (estimated native MW 24.6 kDa, predicted 12.5 kDa).

B1: SSSCA1-H1 peptide (DVMACTQTALLQKLTWASAELGSS) (peptide)
peptide: DVMACTQTALLQKLTWASAELGSS
modifications: not fully specified (N-terminus); also: 5-FAM-Ahx-conjugated
notes: human SSSCA1, helix H1 region; source: synthetic peptide (bought: GenScript)
With B1, the Kd – broadly, the constant that tells how readily two partners part at equilibrium – in data set [1] was determined as 460 nM. For the same molecule, the binding result in data set [2] was “binds”.

B2: SSSCA1-H2 peptide (TSLETSIQLCGLIRACAEALRSLQQL) (peptide)
peptide: TSLETSIQLCGLIRACAEALRSLQQL
modifications: cysteine pairing not given here; also: 5-FAM-Ahx conjugate, position not given here
notes: human SSSCA1, helix H2 region; source: synthetic peptide (bought: GenScript)
As to B2, in data set [2], the binding result is listed as “binds”.

B3: SSSCA1 N-terminal Auto_anti-p27 domain (M1-S111) (domain or fragment, human, UniProt O60232 1-111, looked up)
chain: MALNGAEVDDFSWEPPTEAETKVLQARRERQDRISRLMGDYLLRGYRMLGETCADCGTILLQDKQRKIYCVACQELDSDVDKDNPALNAQAALSQAREHQLASASELPLGS
notes: Residues 1-12 and 78-111 are not modelled in the crystal structure; also called N-terminal SSSCA1; hSSSCA1; not shown: His6, N-terminal, cleaved
With B3, the stoichiometry N (usually the number of molecules, sites or subunits per partner or assembly) in data set [3] is 2.

B4: Axin1 positive control peptide (EDAPRPPVPGEEG) (peptide)
peptide: EDAPRPPVPGEEG
modifications: not fully specified (N-terminus); also: 5-FAM-Ahx-conjugated
notes: source: synthetic peptide (bought: GenScript)
In turn, B4 registered a Kd in data set [1] of 460 nM. Besides, in data set [2], the binding result was “binds”.

B5: SSSCA1-H2 peptide (TSLETSIQLCGLIRACAEALRSLQQL) (peptide)
peptide: TSLETSIQLCGLIRACAEALRSLQQL
modifications: not fully specified (N-terminus); cysteine pairing not given here; also: 5-FAM-Ahx-conjugated
In the case of B5, the Kd in data set [1] turned out to be 60 nM.
